To fix the notation:
B1: wt NicA2 (Pseudomonas putida S16) (protein)
chain: MSDKTKTNEGFSRRSFIGSAAVVTAGVAGLGAIDAASATQKTNRASTVKGGFDYDVVVVGGGFAGATAARECGLQGYRTLLLEARSRLGGRTFTSRFAGQEIEFGGAWVHWLQPHVWAEMQRYGLGVVEDPLTNLDKTLIMYNDGSVESISPDEFGKNIRIAFEKLCHDAWEVFPRPHEPMFTERARELDKSSVLDRIKTLGLSRLQQAQINSYMALYAGETTDKFGLPGVLKLFACGGWNYDAFMDTETHYRIQGGTIGLINAMLTDSGAEVRMSVPVTAVEQVNGGVKIKTDDDEIITAGVVVMTVPLNTYKHIGFTPALSKGKQRFIKEGQLSKGAKLYVHVKQNLGRVFAFADEQQPLNWVQTHDYSDELGTILSITIARKETIDVNDRDAVTREVQKMFPGVEVLGTAAYDWTADPFSLGAWAAYGVGQLSRLKDLQAAEGRILFAGAETSNGWHANIDGAVESGLRAGREVKQLLS
notes: full-length, C-terminal His6 tag kept, expressed in E. coli, purified, 52 kDa on SDS-PAGE; FAD enzyme

The first data set deals with T1, CN1CCC[C@H]1c1cccnc1.
T1 construct: full-length, C-terminal His6 tag kept, expressed in E. coli, purified, 52 kDa on SDS-PAGE; FAD enzyme
The data set is described as follows: residual nicotine by GC; progress curves fitted in KinTek, Km derived from kcat/Km and kcat. It counts as biochemical, Pseudomonas putida. To be noted: rat serum, 37 °C, 250 nM (40 ng/mL) nicotine, O2 as oxidant. An excerpt:
(§1) residual nicotine by GC; progress curves fitted in KinTek, Km derived from kcat/Km and kcat on wt NicA2
On to “wt NicA2 (Pseudomonas putida S16; A107G)”, for which the Km (usually the substrate concentration at which the rate is half of its maximum) is 335 nM; the kcat (commonly the number of substrate molecules converted per active site and unit of time at saturation) is 0.053 s⁻¹; the kcat/Km (as a rule, the second-order rate constant that governs catalysis at low substrate concentration) stood at 160000 M⁻¹ s⁻¹.

For “wt NicA2 (Pseudomonas putida S16; A107R)”, the Michaelis constant (Km) was 830 nM, the kcat was 0.159 s⁻¹ and the kcat/Km is 190000 M⁻¹ s⁻¹.

For the molecule “wt NicA2 (Pseudomonas putida S16; A107T)”, the Km turned out to be 285 nM, the kcat amounted to 0.05 s⁻¹ and the kcat/Km was 180000 M⁻¹ s⁻¹.

For the molecule “wt NicA2 (Pseudomonas putida S16; A426C)”, the Km was found to be 230 nM, the kcat is 0.03 s⁻¹ and the kcat/Km was 130000 M⁻¹ s⁻¹.

As for “wt NicA2 (Pseudomonas putida S16; F104I)”, the Km is reported as 240 nM, the kcat came to 0.039 s⁻¹ and the kcat/Km worked out at 160000 M⁻¹ s⁻¹.

Regarding “wt NicA2 (Pseudomonas putida S16; F104R)”, the Km is given as 270 nM, the kcat turned out to be 0.041 s⁻¹ and the specificity constant (kcat/Km) amounted to 150000 M⁻¹ s⁻¹.

Regarding “wt NicA2 (Pseudomonas putida S16; F104S)”, the Km came out at 250 nM, the kcat came out at 0.031 s⁻¹ and the kcat/Km was found to be 130000 M⁻¹ s⁻¹.

For the molecule “wt NicA2 (Pseudomonas putida S16; F104T)”, the Km stood at 330 nM, the kcat stood at 0.055 s⁻¹ and the kcat/Km was 170000 M⁻¹ s⁻¹.

“wt NicA2 (Pseudomonas putida S16; F355H)”: the Km was found to be 220 nM, the kcat was 0.029 s⁻¹ and the kcat/Km was determined as 130000 M⁻¹ s⁻¹.

Turning to “wt NicA2 (Pseudomonas putida S16; G106A)”, the Km stood at 280 nM, the kcat is 0.031 s⁻¹ and the kcat/Km was determined as 110000 M⁻¹ s⁻¹.

Substrate in a further data set: CN1CCC[C@H]1c1cccnc1
The data set is described as above. It counts as biochemical, Pseudomonas putida. The settings on record: rat serum, 37 °C, 250 nM (40 ng/mL) nicotine, O2 as oxidant.
Text: as §1
As to B1, the Km came out at 240 nM, the kcat came to 0.015 s⁻¹ and the kcat/Km was determined as 64000 M⁻¹ s⁻¹.

Values taken from PMC6679477, “Optimization of a nicotine degrading enzyme for potential use in treatment of nicotine addiction” (BMC Biotechnology, 2019).
